From patent publication US20230227568A1 (Pieris, published 2023)
Where two headings read alike, the source gives them in different places. Values belong to the binder of their own block, whether it stands above or below them.

Legend:
human 4-1BB on cells [1] = target: T1, human 4-1BB on cells (human, UniProt Q07011 24-255); experiment: flow cytometry, Flp-In-CHO::hu4-1BB cells
T1 construct: whole, on cells; Stably transfected CHO cells (flow cytometry) and bought Jurkat reporter cells (bioassay); also called Flp-In-CHO::hu4-1BB; human 4-1BB-expressing CHO cells
Experimental: (§1) 5×10⁴ cells per well were incubated for 1 h in ice-cold PBS containing 5% fetal calf serum (PBS-FCS). A dilution series of the tested multimeric proteins (SEQ ID NOs: 38-44 and 46-55), the 4-1BB-targeting lipocalin mutein as included in the multimeric proteins (SEQ ID NO: 64) or the GPC3-targeting lipocalin SEQ ID NO: 90 were added to the cells and incubated for 1 h on ice. Cells were washed twice with PBS and then incubated with a rabbit anti-NGAL or a goat anti-human IgG labeled with fluorescent dye Alexa 488 for 30 min on ice. Human IgG4 isotype (SEQ ID NOs: 29 and 30) and lipocalin mutein SEQ ID NO: 8 were tested as a negative control. Cells were subsequently washed and analyzed using iQue Flow cytometer (Intellicyte Screener). Mean geometric fluorescent signals were plotted and fitted with Graphpad software using nonlinear regression (shared bottom, four parameters, variable slope).
(§2) Target-specific binding of hexavalent trimeric proteins to human 4-1BB-, OX40- or PD-L1-expressing cells was assessed by flow cytometry as described in Example 5, using CHO cells stably transfected with human 4-1BB, human OX40 or human PD-L1 (Flp-In system; Life Technologies).

human OX40 on cells = target: T2, human OX40 on cells (human, UniProt P43489 29-277); experiment: flow cytometry, Flp-In-CHO::huOX40 cells
T2 construct: whole, on cells; Stably transfected CHO cells (flow cytometry) and bought Jurkat reporter cells (OX40 bioassay); also called Flp-In-CHO::huOX40; human OX40-expressing CHO cells
T2 sequence (looked up): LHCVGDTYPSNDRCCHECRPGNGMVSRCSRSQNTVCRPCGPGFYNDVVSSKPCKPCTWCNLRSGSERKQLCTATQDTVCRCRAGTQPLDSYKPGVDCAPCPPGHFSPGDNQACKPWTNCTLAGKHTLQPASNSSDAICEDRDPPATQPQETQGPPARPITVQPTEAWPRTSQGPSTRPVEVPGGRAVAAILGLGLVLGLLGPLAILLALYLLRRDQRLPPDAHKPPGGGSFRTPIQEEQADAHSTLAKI
Experimental: as §1, §2

[2] = target: T3, huGPC3-His (human GPC3 with C-terminal polyhistidine tag, R&D Systems) (human, UniProt P51654 25-559, limits assumed); experiment: ELISA, huGPC3-His coated, detection anti-NGAL-HRP
T3 construct: Bought; not shown: C-terminal polyhistidine tag
Experimental: (§3) Recombinant hu4-1BB-His (human 4-1BB with a C-terminal polyhistidine tag, R&D Systems) at the concentration of 1 μg/mL in PBS was coated overnight on microtiter plates at 4° C. After washing with PBS-0.05% T (PBS supplemented with 0.05% (v/v) Tween 20), the plates were blocked with 2% BSA (w/v) in PBS-0.1% T (PBS supplemented with 0.1% (v/v) Tween 20) for 1 h at room temperature. After washing with 100 μL PBS-0.05% T five times, exemplary multimeric proteins (SEQ ID NOs: 38-44 and 46-53) or 4-1BB-specific lipocalin mutein as included in the multimeric protein (SEQ ID NO: 64) at different concentrations, ranging from 100 to 0.002 nM, were added to the wells and incubated for 1 h at room temperature, followed by another wash step. Bound molecules under study were detected by incubation with 1:1000 diluted anti-NGAL-HRP in PBS-0.1% T-2% BSA. After an additional wash step, fluorogenic HRP substrate (QuantaBlu, Thermo) was added to each well and the fluorescence intensity was detected using a fluorescence microplate reader.
The same ELISA setup was also employed to determine the binding potency of exemplary bispecific multimeric proteins (SEQ ID NO: 54 and SEQ ID NO: 55) to GPC3, where huGPC3-His (human GPC3 with C-terminal polyhistidine tag, R&D Systems) was instead coated on a microtiter plate. The testing agents were similarly titrated and bound agents detected.

[3] = target: T4, human GPC3 on HepG2 cells (human, UniProt P51654 25-554); experiment: flow cytometry, HepG2 cells
T4 construct: whole, on cells; Endogenous GPC3 of the tumor cell line; also called GPC3-positive tumor cell line HepG2; human GPC3-expressing HepG2 cells
Experimental: (§4) GPC3-positive tumor cell line HepG2 was cultured in Dulbecco's Modified Eagle's Medium ([…], Pan Biotech) supplemented with 10% Fetal Calf Serum (Sigma-Aldrich) and in cell culture flasks according to manufacturer's instruction (37° C., 5% CO₂ atmosphere).
as §1

hu4-1BB-Fc (R&D Systems) = target: T5, hu4-1BB-Fc (R&D Systems) (human, UniProt Q07011 24-186); experiment: SPR (Biacore 8K), hu4-1BB-Fc captured by anti-human IgG Fc; apparent value, 1:1 fit
T5 construct: Bought; also called human 4-1BB; not shown: human IgG Fc of the bought fusion
Experimental: The anti-human IgG Fc antibody (GE Healthcare) was immobilized on a CM5 sensor chip using standard amine chemistry: the carboxyl groups on the chip were activated using 1-ethyl-3-(3-dimethylaminopropyl)-carbodiimide (EDC) and N-hydroxysuccinimide (NHS). Subsequently, anti-human IgG Fc antibody solution (GE Healthcare) at a concentration of 25 μg/mL in 10 mM sodium acetate (pH 5.0) was applied at a flow rate of 5 μL/min until an immobilization level of 4000-10000 resonance units (RU) was achieved. Residual non-reacted NHS-esters were blocked by passing a solution of 1 M ethanolamine across the surface. The reference channel was treated in an analogous manner. Subsequently, hu4-1BB-Fc (R&D Systems) at 0.3 μg/mL was captured by the anti-human IgG-Fc antibody at the chip surface for 180 s at a flow rate of 10 μL/min.
The binding assay was carried out with a contact time of 180 s, a dissociation time of 1200 s or 3000 s and a flow rate of 30 μL/min. All measurements were performed at 25° C. Lipocalin mutein SEQ ID NO: 64 as included in the multimeric proteins was also tested as […]. […] Prior to the protein measurements, three startup cycles were performed for conditioning purposes. Data were evaluated with Biacore Evaluation software. Double referencing was used and the 1:1 binding model was used to fit the raw data.

human 4-1BB on cells [4] = target: T1, human 4-1BB on cells; experiment: cell-based or functional assay
[5] = target: T6, cynomolgus 4-1BB on CHO cells (cynomolgus, UniProt A9YYE7 24-254); experiment: flow cytometry, Flp-In-CHO::cyno4-1BB cells
T6 construct: also called Flp-In-CHO::cyno4-1BB; cynomolgus 4-1BB-expressing CHO cells
Experimental: (§5) CHO cells were stably transfected with human 4-1BB, cynomolgus 4-1BB, or a mock control using the Flp-In system (Life Technologies) according to the manufacturer's instructions. Transfected CHO cells were maintained in Ham's F12 medium (Life Technologies) supplemented with 10% Fetal Calf Serum (Biochrom) and 500 μg/ml Hygromycin B (Roth). Cells were cultured in cell culture flasks according to manufacturer's instruction (37° C., 5% CO₂ atmosphere).
as §1

[6] = target: T3, huGPC3-His (human GPC3 with C-terminal …); experiment: dual-binding ELISA, huGPC3-His coated, detection with biotinylated hu4-1BB-His and Extravidin-HRP
Experimental: Recombinant huGPC3-His (human GPC3 with C-terminal polyhistidine tag, R&D Systems) at the concentration of 1 μg/mL in PBS was coated overnight on microtiter plates at 4° C. After washing with PBS-0.05% T (PBS supplemented with 0.05% (v/v) Tween 20), the plates were blocked with 2% BSA (w/v) in PBS-0.1% T (PBS supplemented with 0.1% (v/v) Tween 20) for 1 h at room temperature. After washing with 100 μL PBS-0.05% T five times, exemplary multimeric proteins (SEQ ID NOs: 54 and 55) at different concentrations, ranging from 100 to 0.002 nM, were added to the wells and incubated for 1 h at room temperature, followed by another wash step. Bound molecules under study were detected by incubation with 1 μg/mL recombinant hu4-1BB-His (biotinylated human 4-1BB with C-terminal polyhistidine tag, Sino Biological) in PBS-0.1% T-2% BSA for 1 h. This step was followed by a further wash step and incubation with 1:5000 diluted Extravidin-HRP in PBS-0.1% T-2% BSA. After an additional wash step, fluorogenic HRP substrate (QuantaBlu, Thermo) was added to each well and the fluorescence intensity was detected using a fluorescence microplate reader.

human 4-1BB on cells [7] = target: T1, human 4-1BB on cells; experiment: flow cytometry, Flp-In-CHO::hu4-1BB cells; remark: listed apart in the source
Experimental: as §5, §1

[8] = target: T4, human GPC3 on HepG2 cells; experiment: flow cytometry on HepG2 cells (human GPC3), anti-NGAL detection, GeoMean BL1-H [Cont'd) C]
Experimental: as §4, §1

[9] = target: T7, recombinant hu4-1BB-His (human 4-1BB with a C-terminal polyhistidine tag, R&D Systems) (human, UniProt Q07011 24-186); experiment: ELISA, hu4-1BB-His coated, detection anti-NGAL-HRP
T7 construct: Bought; not shown: C-terminal polyhistidine tag
Experimental: as §3
The results of exemplary experiments are depicted in FIG. 2, together with the fit curves resulting from a 1:1 binding sigmoidal fit, where the EC₅₀ value and the maximum signal were free parameters, and the slope was fixed to one. The observed EC₅₀ values toward the hu4-1BB of all tested multimeric proteins were in the sub nanomolar range.

human 4-1BB on cells [10] = target: T1, human 4-1BB on cells; experiment: flow cytometry on Flp-In-CHO::huCD137 (human 4-1BB) cells, anti-NGAL detection, GeoMean BL1-H
Experimental: as §5, §1

[11] = target: T6, cynomolgus 4-1BB on CHO cells; experiment: flow cytometry on Flp-In-CHO::cyCD137 (cynomolgus 4-1BB) cells, anti-NGAL detection, GeoMean BL1-H [Cont'd) B]
Experimental: as §5, §1

T6 sequence (A9YYE7 entry or part of it limits assumed): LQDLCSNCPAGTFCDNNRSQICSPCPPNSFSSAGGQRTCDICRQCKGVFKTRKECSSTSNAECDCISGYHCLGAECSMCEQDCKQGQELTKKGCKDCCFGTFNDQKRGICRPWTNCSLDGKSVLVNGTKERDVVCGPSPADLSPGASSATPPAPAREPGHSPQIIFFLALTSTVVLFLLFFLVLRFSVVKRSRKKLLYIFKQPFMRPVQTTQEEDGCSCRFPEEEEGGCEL
T1 sequence (Q07011 24-255): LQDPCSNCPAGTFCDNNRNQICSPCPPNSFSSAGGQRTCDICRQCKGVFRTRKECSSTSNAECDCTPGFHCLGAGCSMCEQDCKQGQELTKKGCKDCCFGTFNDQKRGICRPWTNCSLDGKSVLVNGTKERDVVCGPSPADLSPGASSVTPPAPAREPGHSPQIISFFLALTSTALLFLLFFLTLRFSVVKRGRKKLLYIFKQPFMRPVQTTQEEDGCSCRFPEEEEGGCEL
T4 sequence (P51654 25-554 limits assumed): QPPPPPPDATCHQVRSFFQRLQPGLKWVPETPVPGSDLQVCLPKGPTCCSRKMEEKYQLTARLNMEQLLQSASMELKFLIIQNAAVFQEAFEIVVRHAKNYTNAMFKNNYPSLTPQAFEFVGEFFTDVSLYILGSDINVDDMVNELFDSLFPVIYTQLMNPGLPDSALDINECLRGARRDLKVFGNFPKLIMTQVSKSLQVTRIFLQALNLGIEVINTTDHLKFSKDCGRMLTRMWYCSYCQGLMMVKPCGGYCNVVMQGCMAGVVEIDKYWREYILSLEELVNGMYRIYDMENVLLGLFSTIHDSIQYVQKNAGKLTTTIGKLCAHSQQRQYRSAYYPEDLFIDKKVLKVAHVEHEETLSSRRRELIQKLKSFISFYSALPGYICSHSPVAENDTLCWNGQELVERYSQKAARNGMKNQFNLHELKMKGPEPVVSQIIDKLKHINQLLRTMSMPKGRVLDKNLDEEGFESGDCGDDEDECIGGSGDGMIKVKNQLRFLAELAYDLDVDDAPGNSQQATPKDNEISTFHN
T3 sequence (P51654 25-559 limits assumed): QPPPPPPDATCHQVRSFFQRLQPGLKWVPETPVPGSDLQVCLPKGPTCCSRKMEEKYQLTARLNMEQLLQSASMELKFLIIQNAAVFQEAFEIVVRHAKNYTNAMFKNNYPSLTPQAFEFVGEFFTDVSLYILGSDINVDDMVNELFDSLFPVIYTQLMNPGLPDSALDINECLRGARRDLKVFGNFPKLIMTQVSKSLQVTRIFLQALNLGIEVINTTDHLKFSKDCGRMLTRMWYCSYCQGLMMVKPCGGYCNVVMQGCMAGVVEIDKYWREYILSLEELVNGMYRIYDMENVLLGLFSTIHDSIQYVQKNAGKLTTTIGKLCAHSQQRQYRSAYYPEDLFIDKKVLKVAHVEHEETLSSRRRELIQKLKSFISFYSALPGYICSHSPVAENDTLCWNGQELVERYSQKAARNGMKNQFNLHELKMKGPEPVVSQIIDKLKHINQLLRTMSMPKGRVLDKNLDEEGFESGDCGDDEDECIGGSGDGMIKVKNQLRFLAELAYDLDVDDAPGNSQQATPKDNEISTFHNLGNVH

EC50 [2]: 150 pM
EC50 [3]: 3070 pM
Kd (hu4-1BB-Fc (R&D Systems)): 260 pM
koff (hu4-1BB-Fc (R&D Systems)): 1.99e-05 s⁻¹
kon (hu4-1BB-Fc (R&D Systems)): 77900 M⁻¹ s⁻¹
EC50 [nM], 4-1BB bioassay (NFκB-luc2/4-1BB Jurkat luminescence), with HepG2 cells (human 4-1BB on cells [4]): 0.38 nM
EC50 [5]: 5990 pM
EC50 [6]: 630 pM
EC50 (human 4-1BB on cells [7]): 5490 pM
B2: bispecific multimeric protein SEQ ID NO: 54 (designed binder)
chain: QVQLVQSGAEVKKPGASVKVSCKASGYTFTDYEMHWVRQAPGQGLEWMGALDPKTGDTAYSQKFKGRVTLTADKSTSTAYMELSSLTSEDTAVYYCTRFYSYTYWGQGTLVTLVSSGGGGSGGGGSGGGGSGGGGSDVVMTQSPLSLPVTPGEPASISCRSSQSLVHSNRNTYLHWYLQKPGQSPQLLIYKVSNRFSGVPDRFSGSGSGTDFTLKISRVEAEDVGVYYCSQNTHVPPTFGQGTKLEIKGGGGSGGGGSGGGGSGVRLWATRQAMLGQVHEVPEGWLIFVAEQEELYVRVQNGFRKVQLEARTPLGGGGSGGGGSGGGGSQDSTSDLIPAPPLSKVPLQQNFQDNQFHGKWYVVGQAGNIRLREDKDPIKMMATIYELKEDKSYDVTMVKFDDKKCMYDIWTFVPGSQPGEFTLGKIKSFPGHTSSLVRVVSTNYNQHAMVFFKFVFQNREEFYITLYGRTKELTSELKENFIRFSKSLGLPENHIVFPVPIDQCIDGGGSGGAPEQKLISEEDLGSHHHHHHHHHH

Kd (hu4-1BB-Fc (R&D Systems)): 1180 pM
koff (hu4-1BB-Fc (R&D Systems)): 9.75e-05 s⁻¹
kon (hu4-1BB-Fc (R&D Systems)): 82300 M⁻¹ s⁻¹
EC50 (read off the curve) (human 4-1BB on cells [10]): ~2000 pM
EC50 (read off the curve) [11]: ~1000 pM
EC50 [9]: 180 pM
B4: multimeric protein SEQ ID NO: 40 (designed binder)
chain: QDSTSDLIPAPPLSKVPLQQNFQDNQFHGKWYVVGQAGNIRLREDKDPIKMMATIYELKEDKSYDVTMVKFDDKKCMYDIWTFVPGSQPGEFTLGKIKSFPGHTSSLVRVVSTNYNQHAMVFFKFVFQNREEFYITLYGRTKELTSELKENFIRFSKSLGLPENHIVFPVPIDQCIDGGGGGSGGGGSGGGGSGGGGSGGGGSGVRLWATRQAMLGQVHEVPEGWLIFVAEQEELYVRVQNGFRKVQLEARTPLGGSGGAPEQKLISEEDLGSHHHHHHHHHH

Further lines, the binder ahead of its results:

B1: bispecific hexavalent trimeric protein SEQ ID NO: 164 (designed binder)
chain: QDSTSDLIPAPPLSKVPLQQNFQDNQFHGKWYVVGQAGNIRLREDKDPIKMMATIYELKEDKSYDVTMVKFDDKKCMYDIWTFVPGSQPGEFTLGKIKSFPGHTSSLVRVVSTNYNQHAMVFFKFVFQNREEFYITLYGRTKELTSELKENFIRFSKSLGLPENHIVFPVPIDQCIDGGGGGSGGGGSGGGGSGVRLWATRQAMLGQVHEVPEGWLIFVAEQEELYVRVQNGFRKVQLEARTPLGGGGSGGGGSGGGGSQDSTSDLIPAPPLSKVPLQQNFQDSQFQGKWYVVGFAGNYRLREDKDPGKMQATIYELREDKAYQVTGVLFPHKKCHDDIVIFVPGSQPGEFILGWIKSDPGITSDLVRVVSTDYNQHAMVFFKWVFQNREWFYITLYGRTKALTSELKENFIRFSKSLGLPEDHIVFPVPIDQCIDGGGSGGAPEQKLISEEDLGSHHHHHHHHHH
EC50 (human 4-1BB on cells [1]): 3030 pM
EC50 (human OX40 on cells): 710 pM

B3: 4-1BB-specific lipocalin mutein SEQ ID NO: 64 (designed binder)
chain: QDSTSDLIPAPPLSKVPLQQNFQDNQFHGKWYVVGQAGNIRLREDKDPIKMMATIYELKEDKSYDVTMVKFDDKKCMYDIWTFVPGSQPGEFTLGKIKSFPGHTSSLVRVVSTNYNQHAMVFFKFVFQNREEFYITLYGRTKELTSELKENFIRFSKSLGLPENHIVFPVPIDQCIDG
notes: Monomeric hNGAL mutein; also called 4-1BB-targeting lipocalin mutein as included in the multimeric proteins
Kd (hu4-1BB-Fc (R&D Systems)): 760 pM
koff (hu4-1BB-Fc (R&D Systems)): 7.08e-05 s⁻¹
kon (hu4-1BB-Fc (R&D Systems)): 92700 M⁻¹ s⁻¹
binding result [8]: no binding (tested: about 200 nM)
binding result [5]: no binding
EC50 (human 4-1BB on cells [7]): 3990 pM
EC50 [9]: 410 pM
